Experimental data: patent publication US20240116984A1 (UNIVERSITY OF NOTRE DAME DU LAC, published 2024)
Starred links: 1 amine or outer side, 2 acyl side, 3 side chain; linkers in the order of their positions; H or OH if unused. Non-standard residues stand in square brackets, D forms with d. Primed or numbered codes have the meaning given here. aTyr = Tyr with backbone N-amino (N-aminated amide nitrogen), NN([C@@H](Cc1ccc(O[*:3])cc1)C(=O)[*:2])[*:1]; aIle′ = Ile with backbone N-amino (N-aminated amide nitrogen), CC[C@H](C)[C@@H](C(=O)[*:2])N(N)[*:1]; aVal = Val with backbone N-amino (N-aminated amide nitrogen), CC(C)[C@@H](C(=O)[*:2])N(N)[*:1]; N(NH2)Lys = NCCCC[C@H](NN)C(=O)O

target: Human tauP301L (0N4R), recombinant, N-terminal His tag (human, UniProt P10636 2-758); test: cell-based or functional assay
Sequence (P10636 other isoform, or with tags, fused parts or gaps): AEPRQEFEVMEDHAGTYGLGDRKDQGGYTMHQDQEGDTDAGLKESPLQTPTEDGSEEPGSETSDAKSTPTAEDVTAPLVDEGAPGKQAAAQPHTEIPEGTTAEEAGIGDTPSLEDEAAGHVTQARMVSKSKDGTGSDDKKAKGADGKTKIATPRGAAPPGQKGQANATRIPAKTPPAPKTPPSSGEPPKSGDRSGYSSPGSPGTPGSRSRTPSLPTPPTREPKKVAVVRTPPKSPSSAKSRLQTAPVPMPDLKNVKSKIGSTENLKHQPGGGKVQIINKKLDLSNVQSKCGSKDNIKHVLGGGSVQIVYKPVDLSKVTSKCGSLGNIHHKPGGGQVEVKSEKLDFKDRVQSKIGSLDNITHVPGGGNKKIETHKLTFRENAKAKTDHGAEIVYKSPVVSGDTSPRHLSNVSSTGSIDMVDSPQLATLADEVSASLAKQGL

| Binder | end-point ThT fluorescence of heparin-induced tau aggregation (Tau 10 µM: Inhibitor 20 µM, 48 h) [%] | fibril capping IC50 in cells (mature tauP301L fibrils incubated 36 h with inhibitor, then HEK293 tau-RD(LM)-YFP cells) [µM] |
| --- | --- | --- |
| Ac-VQ[aIle′]INK-NH2 (SMILES CC[C@H](C)[C@H](NC(=O)[C@H]([C@@H](C)CC)N(N)C(=O)[C@H](CCC(N)=O)NC(=O)[C@@H](NC(C)=O)C(C)C)C(=O)N[C@@H](CC(N)=O)C(=O)N[C@@H](CCCCN)C(N)=O) [Compound 2, Ac-Val-Gln-aIle-Ile-Asn-Lys-NH2] | ≤ 50 | – |
| Ac-[aVal]QIVYK-NH2 (SMILES CC[C@H](C)[C@H](NC(=O)[C@H](CCC(N)=O)NC(=O)[C@H](C(C)C)N(N)C(C)=O)C(=O)N[C@H](C(=O)N[C@@H](Cc1ccc(O)cc1)C(=O)N[C@@H](CCCCN)C(N)=O)C(C)C) [Compound 5, Ac-aVal-Gln-Ile-Val-Tyr-Lys-NH2] | ≤ 50 | – |
| Ac-[aVal]Q[aIle′]INK-NH2 (SMILES CC[C@H](C)[C@H](NC(=O)[C@H]([C@@H](C)CC)N(N)C(=O)[C@H](CCC(N)=O)NC(=O)[C@H](C(C)C)N(N)C(C)=O)C(=O)N[C@@H](CC(N)=O)C(=O)N[C@@H](CCCCN)C(N)=O) [Compound 4, Ac-aVal-Gln-aIle-Ile-Asn-Lys-NH2] | ≤ 50 | – |
| Ac-VQ[aIle′]VYK-NH2 (SMILES CC[C@H](C)[C@@H](C(=O)N[C@H](C(=O)N[C@@H](Cc1ccc(O)cc1)C(=O)N[C@@H](CCCCN)C(N)=O)C(C)C)N(N)C(=O)[C@H](CCC(N)=O)NC(=O)[C@@H](NC(C)=O)C(C)C) [Compound 6, Ac-Val-Gln-aIle-Val-Tyr-Lys-NH2] | ≤ 50 | – |

More lines, now with the values ahead:

| end-point ThT fluorescence of heparin-induced tau aggregation (Tau 10 µM: Inhibitor 20 µM, 48 h) [%] | fibril capping IC50 in cells (mature tauP301L fibrils incubated 36 h with inhibitor, then HEK293 tau-RD(LM)-YFP cells) [µM] | Binder |
| --- | --- | --- |
| ≤ 50 | ~5 | Ac-VQI[aVal]Y[N(NH2)Lys]-NH2 (SMILES CC[C@H](C)[C@H](NC(=O)[C@H](CCC(N)=O)NC(=O)[C@@H](NC(C)=O)C(C)C)C(=O)N(N)[C@H](C(=O)N[C@@H](Cc1ccc(O)cc1)C(=O)N(N)[C@@H](CCCCN)C(N)=O)C(C)C) [Compound 13, Ac-Val-Gln-Ile-aVal-Tyr-aLys-NH2] |
| ≤ 50 | ~5 | Ac-VQ[aIle′]V[aTyr]K-NH2 (SMILES CC[C@H](C)[C@@H](C(=O)N[C@H](C(=O)N(N)[C@@H](Cc1ccc(O)cc1)C(=O)N[C@@H](CCCCN)C(N)=O)C(C)C)N(N)C(=O)[C@H](CCC(N)=O)NC(=O)[C@@H](NC(C)=O)C(C)C) [Compound 12, Ac-Val-Gln-aIle-Val-aTyr-Lys-NH2] |
